{
  "source": "patent US20110151450",
  "test_in_all_cases": "cleavage_in_vitro",
  "key": {"[1]": {"test_system": "StyI-HF K75A (Salmonella typhi)", "details": "NEB4, relative activity 50%"}, "[2]": {"test_system": "StyI-WT (Salmonella typhi)", "details": "NEB4, relative activity 25%"}, "[3]": {"test_system": "T1, KasI-WT (Kluyvera ascorbata)", "T1 sequence": "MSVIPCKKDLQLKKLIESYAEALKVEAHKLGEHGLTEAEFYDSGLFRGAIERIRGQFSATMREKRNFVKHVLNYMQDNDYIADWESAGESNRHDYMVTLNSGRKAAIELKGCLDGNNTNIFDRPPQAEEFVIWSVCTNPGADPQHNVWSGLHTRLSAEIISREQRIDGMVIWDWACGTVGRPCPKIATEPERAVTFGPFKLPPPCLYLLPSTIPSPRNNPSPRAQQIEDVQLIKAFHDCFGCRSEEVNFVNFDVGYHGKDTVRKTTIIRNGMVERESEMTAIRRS", "details": "NEB4, relative activity 100%"}, "[4]": {"test_system": "T2, BsrFI-WT (Bacillus stearothermophilus)", "T2 sequence": "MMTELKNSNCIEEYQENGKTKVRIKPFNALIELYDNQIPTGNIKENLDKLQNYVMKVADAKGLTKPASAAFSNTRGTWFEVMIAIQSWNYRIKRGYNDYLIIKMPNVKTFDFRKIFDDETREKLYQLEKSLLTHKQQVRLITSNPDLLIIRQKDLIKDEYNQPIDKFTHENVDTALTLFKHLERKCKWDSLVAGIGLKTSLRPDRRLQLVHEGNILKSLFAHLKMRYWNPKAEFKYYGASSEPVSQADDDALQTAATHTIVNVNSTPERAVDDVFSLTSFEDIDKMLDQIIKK", "details": "NEB4, relative activity 50%"}, "[5]": {"test_system": "T3, AatII-WT (Acetobacter aceti)", "T3 sequence": "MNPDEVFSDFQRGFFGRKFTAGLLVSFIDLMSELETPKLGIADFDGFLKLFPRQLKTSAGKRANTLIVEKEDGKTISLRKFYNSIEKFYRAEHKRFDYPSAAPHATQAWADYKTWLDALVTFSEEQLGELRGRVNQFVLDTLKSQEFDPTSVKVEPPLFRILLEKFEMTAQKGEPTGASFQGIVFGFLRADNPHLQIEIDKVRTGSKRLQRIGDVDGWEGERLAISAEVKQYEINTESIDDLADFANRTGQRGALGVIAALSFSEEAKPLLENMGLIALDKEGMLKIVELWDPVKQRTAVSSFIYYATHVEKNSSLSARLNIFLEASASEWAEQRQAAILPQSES", "details": "NEB4, relative activity 50%"}, "[6]": {"test_system": "BsrDI-HF (BsrDIA + mutant BsrDIB) Q230A/K363A (BsrDIB) (Bacillus stearothermophilus)", "details": "NEB4, relative activity 100%"}, "[7]": {"test_system": "T4, BsaJI-HF D200A (Bacillus stearothermophilus)", "T4 sequence": "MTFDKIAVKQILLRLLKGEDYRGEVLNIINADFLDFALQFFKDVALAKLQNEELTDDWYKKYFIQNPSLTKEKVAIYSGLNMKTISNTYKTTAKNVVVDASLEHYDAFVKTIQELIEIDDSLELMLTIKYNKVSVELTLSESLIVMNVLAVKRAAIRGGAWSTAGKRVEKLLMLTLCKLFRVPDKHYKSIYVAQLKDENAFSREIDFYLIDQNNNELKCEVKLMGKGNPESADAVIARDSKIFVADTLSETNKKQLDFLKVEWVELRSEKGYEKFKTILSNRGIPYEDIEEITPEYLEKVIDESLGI", "details": "NEB4, relative activity 100%"}, "[8]": {"test_system": "T5, KasI-HF N251A (Kluyvera ascorbata)", "T5 sequence": "T1 sequence with N251A", "details": "NEB4, relative activity 100%"}, "[9]": {"test_system": "BsrDI-WT (BsrDIA + BsrDIB) (Bacillus stearothermophilus)", "details": "NEB4, relative activity 25%"}, "[10]": {"test_system": "T6, AatII-HF N235A (Acetobacter aceti)", "T6 sequence": "T3 sequence with N235A", "details": "NEB4, relative activity 100%; Table 1 lists pXba"}, "[11]": {"test_system": "T7, BstNI-HF G26T (Bacillus stearothermophilus)", "T7 sequence": "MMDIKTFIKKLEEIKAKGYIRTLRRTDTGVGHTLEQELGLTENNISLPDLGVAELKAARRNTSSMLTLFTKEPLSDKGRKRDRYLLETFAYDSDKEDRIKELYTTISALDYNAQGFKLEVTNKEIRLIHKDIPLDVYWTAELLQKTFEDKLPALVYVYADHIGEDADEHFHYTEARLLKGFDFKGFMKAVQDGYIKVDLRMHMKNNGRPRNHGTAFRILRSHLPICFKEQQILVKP", "details": "NEB4, relative activity 100%"}, "[12]": {"test_system": "T8, BstNI-WT (Bacillus stearothermophilus)", "T8 sequence": "T7 sequence with T26G", "details": "NEB4, relative activity 50%"}, "[13]": {"test_system": "T9, BsaJI-WT (Bacillus stearothermophilus)", "T9 sequence": "T4 sequence with A200D", "details": "NEB4, relative activity 100%"}, "[14]": {"biological_target": "KpnI-WT (Klebsiella pneumoniae) (UniProt P25237)", "details": "NEB4, relative activity 50%"}, "[15]": {"biological_target": "KpnI-HF D16N/D148E (Klebsiella pneumoniae) (UniProt P25237)", "details": "NEB4, relative activity 100%"}},
  "note": "Positions count from the first letter of the chain named.",
  "data": [
    {"substance": "lambda DNA, StyI sites", "values": [
      {"measurement": "activity (fidelity index)", "setting": "[1]", "value": 4000},
      {"measurement": "activity (fidelity index)", "setting": "[2]", "value": 16}
    ]},
    {"substance": "pBR322 plasmid", "values": [
      {"measurement": "activity (fidelity index)", "setting": "[3]", "value": 4},
      {"measurement": "activity (fidelity index)", "setting": "[4]", "value": 16},
      {"measurement": "activity (fidelity index)", "setting": "[5]", "value": 16},
      {"measurement": "activity (fidelity index)", "setting": "[6]", "value": "> 1000"},
      {"measurement": "activity (fidelity index)", "setting": "[7]", "value": "> 4000"},
      {"measurement": "activity (fidelity index)", "setting": "[8]", "value": "> 16000"},
      {"measurement": "activity (fidelity index)", "setting": "[9]", "value": 0.5},
      {"measurement": "activity (fidelity index)", "setting": "[10]", "value": "> 1000"},
      {"measurement": "activity (fidelity index)", "setting": "[11]", "value": 500},
      {"measurement": "activity (fidelity index)", "setting": "[12]", "value": 4},
      {"measurement": "activity (fidelity index)", "setting": "[13]", "value": 64}
    ]},
    {"substance": "pXba plasmid, KpnI sites", "values": [
      {"measurement": "activity (fidelity index)", "setting": "[14]", "value": 4},
      {"measurement": "activity (fidelity index)", "setting": "[15]", "value": "> 1e+06"}
    ]}
  ]
}
